The target of this test is FtsZ-F268C labeled with fluorescein 5-maleimide (donor) or tetramethylrhodamine 5-maleimide (acceptor) (E. coli) (UniProt P0A9A6).

B1: FtsA-R286W (FtsA*) from E. coli (natural protein)
chain: MIKATDRKLVVGLEIGTAKVAALVGEVLPDGMVNIIGVGSCPSRGMDKGGVNDLESVVKCVQRAIDQAELMADCQISSVYLALSGKHISCQNEIGMVPISEEEVTQEDVENVVHTAKSVRVRDEHRVLHVIPQEYAIDYQEGIKNPVGLSGVRMQAKVHLITCHNDMAKNIVKAVERCGLKVDQLIFAGLASSYSVLTEDERELGVCVVDIGGGTMDIAVYTGGALRHTKVIPYAGNVVTSDIAYAFGTPPSDAEAIKVRHGCALGSIVGKDESVEVPSVGGRPPWSLQRQTLAEVIEPRYTELLNLVNEEILQLQEKLRQQGVKHHLAAGIVLTGGAAQIEGLAACAQRVFHTQVRIGAPLNITGLTDYAQEPYYSTAVGLLHYGKESHLNGEAEVEKRVTASVGSWIKRLNSWLRKEF
B1 showed an FRET assay of subunit exchange of FtsZ protofilaments at steady state with FtsA*, pH 6.5: reaction time τ (13.1 s for FtsZ alone) of 38 s.

The record behind these values is paper PMC5473857.
